Target: elongation factor G (EF-G) of B. subtilis, P80868
Sequence (P80868 2-692): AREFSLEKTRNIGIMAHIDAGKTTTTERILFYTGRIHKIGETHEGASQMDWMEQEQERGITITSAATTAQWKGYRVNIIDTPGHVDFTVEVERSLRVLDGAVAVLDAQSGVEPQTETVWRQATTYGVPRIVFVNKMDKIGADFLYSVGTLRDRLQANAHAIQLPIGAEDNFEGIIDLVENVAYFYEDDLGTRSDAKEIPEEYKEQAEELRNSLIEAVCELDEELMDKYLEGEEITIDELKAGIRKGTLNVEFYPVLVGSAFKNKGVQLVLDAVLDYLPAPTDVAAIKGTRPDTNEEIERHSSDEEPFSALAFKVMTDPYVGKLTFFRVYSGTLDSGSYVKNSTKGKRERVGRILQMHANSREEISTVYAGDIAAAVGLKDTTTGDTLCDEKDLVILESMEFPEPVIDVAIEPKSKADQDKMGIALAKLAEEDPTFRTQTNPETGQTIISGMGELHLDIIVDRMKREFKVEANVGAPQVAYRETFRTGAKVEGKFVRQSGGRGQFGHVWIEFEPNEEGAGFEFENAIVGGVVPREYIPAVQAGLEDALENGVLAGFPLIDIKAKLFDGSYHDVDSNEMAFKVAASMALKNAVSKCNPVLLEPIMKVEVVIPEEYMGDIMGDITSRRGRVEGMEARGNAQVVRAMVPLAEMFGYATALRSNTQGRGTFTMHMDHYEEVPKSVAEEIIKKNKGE

B1: PrkC Ser/Thr kinase of B. subtilis (protein)
chain: MLIGKRISGRYQILRVIGGGGMANVYLAEDIILDREVAIKILRFDYANDNEFIRRFRREAQSASSLDHPNIVSIYDLGEEDDIYYIVMEYVEGMTLKEYITANGPLHPKEALNIMEQIVSAIAHAHQNQIVHRDIKPHNILIDHMGNIKVTDFGIATALSSTTITHTNSVLGSVHYLSPEQARGGLATKKSDIYALGIVLFELLTGRIPFDGESAVSIALKHLQAETPSAKRWNPSVPQSVENIILKATAKDPFHRYETAEDMEADIKTAFDADRLNEKRFTIQEDEEMTKAIPIIKDEELAKAAGEKEAEVTTAQENKTKKNGKRKKWPWVLLTICLVFITAGILAVTVFPSLFMPKDVKIPDVSGMEYEKAAGLLEKEGLQVDSEVLEISDEKIEEGLMVKTDPKADTTVKEGATVTLYKSTGKAKTEIGDVTGQTVDQAKKALKDQGFNHVTVNEVNDEKNAGTVIDQNPSAGTELVPSEDQVKLTVSIGPEDITLRDLKTYSKEAASGYLEDNGLKLVEKEAYSDDVPEGQVVKQKPAAGTAVKPGNEVEVTFSLGPEKKPAKTVKEKVKIPYEPENEGDELQVQIAVDDADHSISDTYEEFKIKEPTERTIELKIEPGQKGYYQVMVNNKVVSYKTIEYPKDE
EF-G phosphorylation (immunoprecipitation with anti-EF-G, western blot with anti-phosphothreonine antibody): EF-G (as identified by probing the same fractions with the α-EF-G) phosphorylation increased following exposure to cell free supernatant (FIG. 24D). In contrast, no change in phosphorylation was observed in spores lacking PrkC.

Source: US20110086797
